This is an account of results in US20150232576A1.

For assay [1], the target named is Phosphorylated His-p38 (p38 MAP kinase) (UniProt Q16539). The experiment in a line: BLI, immobilised p38, k2/k1. On the technique in general: In BLI a coated tip is dipped into the sample, and binding shifts an interference pattern.
Assay [2] shares this target. In words: optical biosensing (BLI), summary statement.
The target is the same in assay [3]. In words: refers to the biosensor experiments described above.
The target is the same in assay [4]. In words: BLI, biotinylated p38 on streptavidin sensors, 696 nM eNOS analyte.
For assay [5] the target is unchanged. The experiment in a line: BLI, immobilised p38, eNOS analyte, two-component sequential model.
The target is the same in assay [6]. The experiment in a line: BLI, immobilised p38, from the pseudo first order rate at 232 nM eNOS.
Assay [7] shares this target. In words: BLI, biotinylated p38 on streptavidin sensors, 696 nM eNOS, 300 s dissociation in buffer.
For assay [8] the target is unchanged. The experiment in a line: BLI, immobilised p38, 696 nM nNOS analyte, compared with eNOS.

endothelial nitric oxide synthase (eNOS), purified, unphosphorylated, sequence (P29473 whole entry): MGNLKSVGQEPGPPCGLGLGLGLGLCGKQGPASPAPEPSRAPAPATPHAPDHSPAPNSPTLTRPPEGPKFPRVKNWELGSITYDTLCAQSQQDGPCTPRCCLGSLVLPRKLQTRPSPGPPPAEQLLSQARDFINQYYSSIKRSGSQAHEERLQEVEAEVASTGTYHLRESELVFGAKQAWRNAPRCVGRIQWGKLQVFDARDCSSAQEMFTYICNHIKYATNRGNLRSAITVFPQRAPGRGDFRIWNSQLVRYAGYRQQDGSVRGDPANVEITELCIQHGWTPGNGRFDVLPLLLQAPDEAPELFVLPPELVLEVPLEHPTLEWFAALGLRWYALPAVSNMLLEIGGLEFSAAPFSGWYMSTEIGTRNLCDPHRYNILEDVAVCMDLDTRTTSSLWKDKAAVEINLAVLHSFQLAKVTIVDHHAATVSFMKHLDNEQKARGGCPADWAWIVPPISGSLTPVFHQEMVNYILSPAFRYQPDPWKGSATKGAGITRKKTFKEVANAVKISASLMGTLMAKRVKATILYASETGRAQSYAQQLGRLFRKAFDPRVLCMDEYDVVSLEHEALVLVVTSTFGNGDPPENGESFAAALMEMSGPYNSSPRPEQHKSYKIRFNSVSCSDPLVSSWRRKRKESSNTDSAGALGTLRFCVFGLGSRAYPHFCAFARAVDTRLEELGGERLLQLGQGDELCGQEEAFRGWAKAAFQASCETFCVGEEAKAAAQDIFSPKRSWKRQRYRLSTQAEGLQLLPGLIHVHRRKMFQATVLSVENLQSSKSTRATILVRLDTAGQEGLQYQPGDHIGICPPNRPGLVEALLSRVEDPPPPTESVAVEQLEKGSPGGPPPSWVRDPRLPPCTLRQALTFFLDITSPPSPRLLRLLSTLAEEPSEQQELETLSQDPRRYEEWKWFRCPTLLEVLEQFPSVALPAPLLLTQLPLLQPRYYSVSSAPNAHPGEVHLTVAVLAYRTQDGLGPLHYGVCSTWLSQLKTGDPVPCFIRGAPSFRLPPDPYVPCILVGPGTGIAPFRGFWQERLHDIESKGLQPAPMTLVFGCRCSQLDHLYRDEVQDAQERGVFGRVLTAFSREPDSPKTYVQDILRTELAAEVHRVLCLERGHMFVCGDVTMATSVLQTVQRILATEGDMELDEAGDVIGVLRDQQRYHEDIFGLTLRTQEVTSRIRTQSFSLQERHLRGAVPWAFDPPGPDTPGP

In assay [1], “endothelial nitric oxide synthase (eNOS), purified, unphosphorylated (from UniProt P29473 1-1205) (enzyme)” registered a Kd of 80 nM. In assay [2], this substance displayed a Kd of 100 nM and a kon of 150000 M⁻¹ s⁻¹. For the same substance, the Kd in assay [3] is 0.05 to 0.1 nM. Moreover, in assay [4], the half time of the initial association component amounted to 10 s. Besides, in assay [5], the k1 (pseudo first order forward rate, first step) at 26 nM eNOS came out at 0.0025 s⁻¹; the k1 (pseudo first order forward rate, first step) at 77 nM eNOS stood at 0.0008 s⁻¹; the k1 (pseudo first order forward rate, first step) at 232 nM eNOS was determined as 0.03 s⁻¹; the k1 (pseudo first order forward rate, first step) at 696 nM eNOS stood at 0.1 s⁻¹. In assay [5], this substance registered a k2 (reverse rate, first step) at 26 nM eNOS of 0.01 s⁻¹; a k2 (reverse rate, first step) at 77 nM eNOS of 0.01 s⁻¹; a k2 (reverse rate, first step) at 232 nM eNOS of 0.01 s⁻¹; a k2 (reverse rate, first step) at 696 nM eNOS of 0.01 s⁻¹. In assay [5], this substance showed a k3 (forward rate, second step) at 26 nM eNOS of 0.0002 s⁻¹; a k3 (forward rate, second step) at 77 nM eNOS of 0.006 s⁻¹; a k3 (forward rate, second step) at 232 nM eNOS of 0.0002 s⁻¹; a k3 (forward rate, second step) at 696 nM eNOS of 0.006 s⁻¹. In assay [5], this substance gave a k4 (reverse rate, second step) at 26 nM eNOS of 0.001 s⁻¹; a k4 (reverse rate, second step) at 77 nM eNOS of 0.001 s⁻¹; a k4 (reverse rate, second step) at 232 nM eNOS of 0.001 s⁻¹; a k4 (reverse rate, second step) at 696 nM eNOS of 0.001 s⁻¹. The substance further came in with a kon in assay [6] of 130000 M⁻¹ s⁻¹. In assay [7], this substance displayed a percent of the rapid phase binding dissociated in buffer of 25%.

“neuronal nitric oxide synthase (nNOS) (from UniProt P29476 1-1429) (enzyme)” showed a fold slower binding than eNOS in assay [8] of 30 fold.

Broadly, the Kd is the constant that tells how readily two partners part at equilibrium. Read a low Kd as higher affinity. Usually kon stands for a measure of how fast the partners come together. High values mean fast association, low ones slow association.
